Laboratory results as given in article PMC4764080 (Cell, 2009).
Square brackets hold non-standard residues; d marks the D form. pY = N[C@@H](Cc1ccc(OP(=O)(O)O)cc1)C(=O)O

What was measured:
FGFR1-3P(RD/VV) = FGFR1-3P(RD/VV) (UniProt P11362); assay: ITC
[1] = biological target: FGFR1-3P (trisphosphorylated cytoplasmic region of FGFR1: tyrosine kinase domain and C-terminal tail) (UniProt P11362); assay: ITC
FGFR1-3P(VV/DD) = FGFR1-3P(VV/DD) (UniProt P11362); assay: ITC
[2] = biological target: pY766 peptide (synthetic phosphopeptide of the C-terminal region of FGFR1, TSNQEpYLDLSM); assay: SPR
[3] = biological target: FGFR1-3P (trisphosphorylated cytoplasmic region of FGFR1: tyrosine kinase domain and C-terminal tail) (UniProt P11362); assay: SPR
[4] = biological target: FGFR1-3P (trisphosphorylated cytoplasmic region of FGFR1: tyrosine kinase domain and C-terminal tail) (UniProt P11362); assay: SPR; remark: listed apart in the source
PLCγ pY783 = assay: Tyrosine phosphorylation of PLCγ; assay type: cell-based; settings: L6 myoblasts stably expressing FGFR1; 100 ng/mL FGF, 5 min, 37 °C; anti-pY783 (PLCγ) immunoblot
[5] = biological target: T1, isolated C-SH2 domain of PLCγ (rat); assay: ITC
T1 sequence (P10686 whole entry, looked up): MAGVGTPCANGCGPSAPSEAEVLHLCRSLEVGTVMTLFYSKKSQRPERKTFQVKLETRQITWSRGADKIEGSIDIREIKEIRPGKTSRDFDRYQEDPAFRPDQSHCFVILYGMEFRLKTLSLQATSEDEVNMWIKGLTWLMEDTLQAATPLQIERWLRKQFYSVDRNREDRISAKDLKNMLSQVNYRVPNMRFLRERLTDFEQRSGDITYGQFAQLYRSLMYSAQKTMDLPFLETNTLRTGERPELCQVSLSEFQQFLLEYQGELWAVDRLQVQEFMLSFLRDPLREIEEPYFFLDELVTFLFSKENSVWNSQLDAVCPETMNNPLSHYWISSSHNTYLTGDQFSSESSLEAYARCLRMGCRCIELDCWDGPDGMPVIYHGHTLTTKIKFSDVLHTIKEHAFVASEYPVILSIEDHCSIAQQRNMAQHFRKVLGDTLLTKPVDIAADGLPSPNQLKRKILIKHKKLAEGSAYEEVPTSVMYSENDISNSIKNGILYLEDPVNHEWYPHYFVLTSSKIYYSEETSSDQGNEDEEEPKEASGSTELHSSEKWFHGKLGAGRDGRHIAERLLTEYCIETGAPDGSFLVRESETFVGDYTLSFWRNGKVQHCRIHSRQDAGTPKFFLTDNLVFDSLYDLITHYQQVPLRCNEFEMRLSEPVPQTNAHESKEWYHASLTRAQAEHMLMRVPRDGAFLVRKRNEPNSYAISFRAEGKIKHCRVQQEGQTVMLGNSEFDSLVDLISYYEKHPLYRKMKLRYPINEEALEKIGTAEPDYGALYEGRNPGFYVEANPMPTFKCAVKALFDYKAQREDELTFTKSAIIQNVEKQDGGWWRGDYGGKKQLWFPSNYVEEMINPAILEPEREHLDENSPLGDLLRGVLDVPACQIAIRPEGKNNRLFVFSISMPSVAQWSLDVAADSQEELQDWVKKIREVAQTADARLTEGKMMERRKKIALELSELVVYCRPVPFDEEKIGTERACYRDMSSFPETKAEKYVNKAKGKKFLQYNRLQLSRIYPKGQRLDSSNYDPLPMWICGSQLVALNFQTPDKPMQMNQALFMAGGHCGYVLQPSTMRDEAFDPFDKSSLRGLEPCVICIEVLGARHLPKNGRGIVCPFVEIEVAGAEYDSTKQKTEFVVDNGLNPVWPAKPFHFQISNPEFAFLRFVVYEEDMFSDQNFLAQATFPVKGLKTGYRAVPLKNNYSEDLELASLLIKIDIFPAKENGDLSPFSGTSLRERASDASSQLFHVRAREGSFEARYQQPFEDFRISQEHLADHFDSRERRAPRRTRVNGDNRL

[6] = biological target: T2, isolated N-SH2 domain of PLCγ (rat); assay: ITC
T2 sequence (P10686 whole entry, looked up): T1 sequence (P10686 whole entry, looked up)

**Q.** For “isolated N-SH2 domain of PLCγ (domain or fragment)”, which Kd (FGFR1-3P(RD/VV)) is on record?
**A.** Its Kd is 112 nM.

**Q.** And the Kd [1]?
**A.** The Kd was 33 nM.

**Q.** And the Kd (FGFR1-3P(VV/DD))?
**A.** The Kd was 221 nM.

**Q.** And the Kd [2]?
**A.** Its Kd is 5670 nM.

**Q.** And the Kd [3]?
**A.** Its Kd is 142 nM.

**Q.** And the Kd [4]?
**A.** Its Kd is 44 nM.

**Q.** “WT FGFR1: wild type FGFR1 stably expressed in L6 myoblasts” was tested. Which “tyrosine phosphorylation of PLCγ” value (PLCγ pY783) did it give?
**A.** Its value is “tyrosine phosphorylation of PLCγ”.

**Q.** Which Kd [1] does the source give for “isolated C-SH2 domain of PLCγ (domain or fragment)” here?
**A.** Its Kd is 490 nM.

**Q.** With “FGFR1(Y766F): FGFR1 mutant Y766F in the primary binding site for the N-SH2 domain, expressed in L6 myoblasts” as the molecule, how does the “tyrosine phosphorylation of PLCγ” value (PLCγ pY783) read?
**A.** Its value is “negligible tyrosine phosphorylation of PLCγ”.

B1: pY766 peptide (synthetic phosphopeptide of the C-terminal region of FGFR1, TSNQEpYLDLSM) (peptide)
peptide: {biotin‑XX}-TSNQE[pY]LDLSM-NH2
**Q.** Which results are given for B1?
**A.** Kd [5]: 1810 nM; Kd [6]: 433 nM
